Laboratory results: US8361965B2, “Recombinant chimeric protein of neutrophil inhibitory factor and hirugen, and pharmaceutical composition thereof” (Lunan Pharmaceutical Group Corporation, priority 2008, dated 2013)

Legend:
thrombin = thrombin (Homo sapiens, UniProt P00734); test: in vitro binding of TNHH to thrombin (SEC-HPLC); parameters: Human thrombin (127 Unit/ampoule), Lot No.: 20021105; purchased National Institute for The Control of Pharmaceutical and Biological Products Lot No.: 20021105; settings: 37° C. 1 h
Procedure: Weigh TNHH, dilute to 1.0 mg/ml with phosphate buffer solution, and is ready for use; Weight fibrin precisely, dissolve and dilute to 0.1 mg/ml with phosphate buffer solution, and is ready for use; Weigh thrombin, dissolve and dilute to 100 units/ml with phosphate buffer solution, which is ready for use.
Following the below procedures, test materials were reacted at 37° C. for 1 h, and then analyzed under the following chromatographic conditions.
(1) pipette test material solutions (20 μl for each), loading for analysis, and recording each retention time.
(2) pipette fibrin and thrombin solutions (0.5 ml for each), mixing and reacting at 37° C. for 1 h, and loading 20 μl sample for analysis.
(3) pipette TNHH and fibrin solutions (0.5 ml for each), mixing and reacting at 37° C. for 1 h, and loading 20 μl sample for analysis.
(4) pipette TNHH and thrombin solutions (0.5 ml for each), mixing and reacting at 37° C. for 1 h, and loading 20 μl sample for analysis.
(5) pipette TNHH and mixture of fibrin and thrombin solutions (0.5 ml for each), mixing and reacting at 37° C. for 1 h, and loading 20 μl sample for analysis.
Flow rate 0.5 ml/min; detection wavelength: 214 nm, Column temperature: room temperature; chromatogram recording time: 25 min.

[1] = tested on: experimental cerebral hematoma in rats; test: effects on experimental cerebral hematoma in rats; type: in vivo, SD rats; parameters: key to behavioral score: neurologic defect score, full score 11; higher = more severe disorder; settings: 2 mg/kg bid caudal vein; for behavioral score: full score 11
Procedure: SD rats were randomly divided into 4 groups (8 animals per group), including model group, NHH group, NIF group and TNHH group. The rats in each group were anesthetized by chloral hydrate, and then 0.1 ml blood was collected by amputation of tail. The rats were fixed in a stereotaxic apparatus. Median incision of scalp was performed and the periosteum was cut open to expose bregma. Subsequently, a small hole with a diameter of 1 mm was perforated for needle insertion of microsyringe fixed on the stereotaxic apparatus with insertion depth of 5.8 mm (i.e to the position of caudate nucleus) at the site which was 1 mm rearward to the bregma and 3 mm left to the midline, and then 0.1 ml autoblood was injected slowly. Neurological functional defect score was immediately evaluated based on the evaluation criterion after the animal got conscious. The animal with behavior score less than 11 was selected in this study. Behavior score evaluation was continuously carried out after the establishment of model till the end of the experiment.
The neurologic function defect score was evaluated at 5 time points of 4 h, 12 h, 24 h, 48 h and 72 h after the model establishment. Changes of brain water content and histopathological observation were performed at 72 h after the model establishment on sacrificed rats.
Corresponding medicaments (2 mg/kg, bid) were administered through the caudal vein to animals with administration volume of 1 ml/100 g in each group after model animal was successfully established (according to the score less than 11 based on the behavior score evaluation), while the model group received physiological saline in the corresponding volume.
The brain was taken out immediately after the sacrifice of animals, and then […] ectocinerea (cortex was removed) at the edge of haematoma was collected. The brain water content was determined using dry and wet method based on the following formula: Brain water content=(wet weight−dry weight)/wet weight×100%
The brain was immediately taken out by decollation at selected time points, and it was sliced up to be 2 mm thick along the coronal section and then fixed in 10% formaldehyde. The slices were stained by regular HE and mounted. Then the pathological changes occurred in pathological region and the neighboring brain tissues were observed.
Evaluation was performed at the time of 4 h, 12 h, 24 h, 48 h and 72 h after surgery. The method was described as follows:
The flection of forelimbs was observed by lifting the rat by its tail. If the forelimbs symmetrically extended toward the floor, the score was 0. While if wrist flection, or elbow inflection, or internal rotation of shoulder, or both elbow inflection and internal rotation of shoulder occurred to forelimbs of the rat on the opposite side of the surgery part, it was evaluated as scores of 1, 2, 3 and 4, respectively.
The animal was placed on flat floor, and then both shoulders were pushed to move towards the opposite side to examine the resistance. If the resistances on both sides were equal and forceful, it was evaluated as 0. While if the resistance decreased slightly, mildly or severely when pushed to the opposite side of the surgery part, it was evaluated as 1, 2 or 3, respectively.
Both forelimbs of the animal were placed on a metal mesh to observe the muscular tension. The rat with equal and forceful muscular tension of both forelimbs was evaluated as 0. In the same way, the rat was evaluated as 1, 2 or 3, respectively with the reduction of muscular tension on the opposite side of the surgery part mentioned above.
The animal tended to keep turning around to one side was evaluated as 1. Based on the evaluation criterion (with full score of 11), the higher the score was evaluated, the more severe the behavior disorder was.

blood coagulation system = test: effects on blood coagulation system of New Zealand rabbits in vitro (APTT, PT, TT); type: biochemical, New Zealand rabbit; parameters: PT: unit not given beside the values; APTT / TT: unit not given here
Procedure: Medicaments were diluted to the following concentrations for use: TNHH: 3.0 mg/ml; 1.0 mg/ml; 333 μg/ml; bivalrudin: 600 μg/ml; 200 μg/ml; 67 μg/ml; Hirudin: 660 μg/ml; 220 μg/ml; 73 μg/ml.
The blood was sampled from six New Zealand rabbits (10×1.8 ml for each one) from marginal ear vein and added into 10 anticoagulation tubes, respectively. 3.2% sodium citrate (9:1) was added for anticoagulation.
20 μl anticoagulated blood was taken from each tube, followed by the addition of 20 μl above diluted medicaments for each tube. 20 μl physiological saline was added into the control tube. Samples were mixed thoroughly and centrifuged at 3000 rpm/min for 3 min, and plasma was send to Department of Clinical Laboratory, Southwest Hospital for determining blood coagulation indexes (APTT, TT and PT) with a full automatic coagulation analyzer and the difference before and after administration was obtained by comparison.

[2] = TNHH 3.33 μg/ml in rabbit blood
[3] = TNHH 10.00 μg/ml in rabbit blood
[4] = TNHH 30.00 μg/ml in rabbit blood

B1: TNHH: recombinant chimeric protein of neutrophil inhibitory factor and hirugen, Met-NIF-GGGGG-FPRPGSGG-Hirugen (SEQ ID NO: 3), expressed in E. coli (protein)
chain: MNEHNLRCPQNGTEMPGFNDSIRLQFLAMHNGYRSKLALGHISITEESESDDDDDFGFLPDFAPRASKMRYLEYDCEAEKSAYMSARNCSDSSSPPEGYDENKYIFENSNNISEAALKAMISWAKEAFNLNKTKEGEGVLYRSNHDISNFANLAWDAREKFGCAVVNCPLGEIDDETNHDGETYATTIHVVCHYPKINKTEGQPIYKVGTPCDDCSEYTKKADNTTSADPVCIPDDGVCFIGSKADYDSKEFYRFRELGGGGGFPRPGSGGNGDFEEIPEEYL
modifications: N-terminal Met
binding with thrombin (thrombin): could bind with fibrin and thrombin
behavioral score ([1]; 4 h): 2.00 ± 1.07
behavioral score ([1]; 12 h): 2.00 ± 0.76
behavioral score ([1]; 24 h): 2.25 ± 0.46
behavioral score ([1]; 48 h): 2.12 ± 0.64
Brain water content (%) ([1]; 72 h, dry and wet method): 78.28 ± 1.97 %
behavioral score ([1]; 72 h): 2.88 ± 1.46
APTT (blood coagulation system; [2]): 33.73 ± 6.35
PT (blood coagulation system; [2]): 7.08 ± 0.28
TT (blood coagulation system; [2]): 17.13 ± 1.46
APTT (blood coagulation system; [3]): 31.87 ± 4.46
PT (blood coagulation system; [3]): 7.15 ± 0.24
TT (blood coagulation system; [3]): 20.43 ± 1.59
APTT (blood coagulation system; [4]): 38.08 ± 5.53
PT (blood coagulation system; [4]): 7.27 ± 0.38
TT (blood coagulation system; [4]): 30.00 ± 4.81
